Test results as given in patent US12139520B2 (priority 2020, dated 2024).
Numbered stars: 1 amine (or outer) side, 2 acyl side, 3 side chain; on linkers, the order of the positions; unused ones are H or OH. Bridge positions count the residues as written; N and C are the ends. Square brackets hold non-standard residues; d marks the D form. Side chains are listed from the residue outwards. Ends that are not written are not given here. * marks the point of attachment. C20 diacid = O=C(O)CCCCCCCCCCCCCCCCCCC(=O)*; γGlu = O=C(O)[C@H](CCC(=O)[*:2])N[*:1]; Hyp = O=C(O)[C@@H]1C[C@@H](O)CN1; AEEA = NCCOCCOCC(=O)O; Aib = CC(C)(N)C(=O)O

T1: hAMY3R (human, UniProt P30988)
T1 sequence 1: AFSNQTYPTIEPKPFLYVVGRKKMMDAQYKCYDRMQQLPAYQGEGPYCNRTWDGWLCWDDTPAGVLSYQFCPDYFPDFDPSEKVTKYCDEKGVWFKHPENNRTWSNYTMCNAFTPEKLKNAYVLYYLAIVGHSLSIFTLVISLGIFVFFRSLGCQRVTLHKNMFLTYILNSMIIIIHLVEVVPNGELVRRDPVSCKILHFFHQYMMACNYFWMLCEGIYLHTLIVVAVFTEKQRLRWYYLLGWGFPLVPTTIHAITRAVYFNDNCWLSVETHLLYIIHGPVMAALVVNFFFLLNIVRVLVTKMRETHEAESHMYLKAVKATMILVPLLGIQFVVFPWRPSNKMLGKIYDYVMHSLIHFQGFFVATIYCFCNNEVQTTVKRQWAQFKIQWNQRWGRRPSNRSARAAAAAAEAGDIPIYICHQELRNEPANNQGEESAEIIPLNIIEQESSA
T1 sequence 2: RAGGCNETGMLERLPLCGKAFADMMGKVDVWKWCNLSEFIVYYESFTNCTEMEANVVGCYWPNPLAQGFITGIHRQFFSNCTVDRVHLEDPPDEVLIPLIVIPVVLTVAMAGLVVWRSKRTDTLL


Assays:
hAMY3R = target: T1, hAMY3R; experiment: cell-based or functional assay
hAM1R = hAM1R (human, UniProt Q16602); experiment: cell-based or functional assay

| Binder | hAMY3R EC50 (cAMP) (hAMY3R) | hAM1R EC50 (cAMP) (hAM1R) |
| --- | --- | --- |
| KCNFATCTVQRLAHQIYQFTDKDKDNVAPPTEVGSNG[Hyp]-NH2 (disulfide 2-7 (inferred); ends not checked) [SEQ ID NO: 10] | 0.007 nM | 552 nM |
| KCNTATCTVQRLAHQIYQFTDKDKDNVAPRTEVGSNGY [SEQ ID NO: 102] | 0.018 nM | > 5000 nM |
| {C20 diacid-γGlu}-KCNTATCTVVRLAHQIYQFTDKDKDNVAPPTNVGSNG[Hyp]-NH2 (disulfide 2-7 (inferred); ends not checked) [SEQ ID NO: 103] | 0.018 nM | > 5000 nM |
| GCRFGTCTVQRLAHQIYQFTDKDKDNVAPRTKIGPQG[Hyp]-NH2 (disulfide 2-7 (inferred); ends not checked) [SEQ ID NO: 111] | 0.021 nM | 2980 nM |
| {C20 diacid-γGlu}-KCNTATCTVQRLAHQIEQFTDKDKDNVAPPTNVGSNG[Hyp]-NH2 (disulfide 2-7 (inferred); ends not checked) [SEQ ID NO: 110] | 0.02 nM | > 5000 nM |
| {C20 diacid-γGlu}-KCNTATCTVQRLAEQIYQFTDKDKANVAPPTNVGSNG[Hyp]-NH2 (disulfide 2-7 (inferred); ends not checked) [SEQ ID NO: 108] | 0.019 nM | > 5000 nM |
| {C20 diacid-γGlu}-KCNTATCTVQRLAHQIYQFTDKDKDNVAPRTKVGSNG[Hyp] (disulfide 2-7 (inferred); ends not checked) [SEQ ID NO: 99] | 0.017 nM | 364 nM |
| {C20 diacid-γGlu}-KCNTATCTVQRLAHQIAQFADKDKDNVAPPTNVGSNG[Hyp]-NH2 (disulfide 2-7 (inferred); ends not checked) [SEQ ID NO: 105] | 0.018 nM | > 5000 nM |
| GCRTGTCTVQRLAHQIYQFTDKDKDNVAPRTNIGPQG[Hyp]-NH2 (disulfide 2-7 (inferred); ends not checked) [SEQ ID NO: 118] | 0.024 nM | 2980 nM |
| {C20 diacid-γGlu}-KCNTATCTVQRLAEQIYQFTDKDKDQVAPPTNVGSNG[Hyp]-NH2 (disulfide 2-7 (inferred); ends not checked) [SEQ ID NO: 100] | 0.017 nM | > 5000 nM |
| KCNTATCTVQRLAHQIYQATDKDKDNVAPPTNVGSNG[Hyp]-NH2 (disulfide 2-7 (inferred); ends not checked) [SEQ ID NO: 114] | 0.022 nM | > 5000 nM |
| KCNAATCTVQRLAEQIYQFTDKDKDNVAPPTNVGSNG[Hyp]-NH2 (disulfide 2-7 (inferred); ends not checked) [SEQ ID NO: 101] | 0.017 nM | > 5000 nM |
| {C20 diacid-γGlu}-KCNTATCTVQRLAHQIYQFYDKDKDNVAPPTNVGSNG[Hyp]-NH2 (disulfide 2-7 (inferred); ends not checked) [SEQ ID NO: 104] | 0.018 nM | > 5000 nM |
| KCNTATCTVQRLAEQIYQFTDKDKDNK([AEEA-AEEA-γGlu-C20 diacid])APPTNVGSNG[Hyp]-NH2 (disulfide 2-7 (inferred); ends not checked) [SEQ ID NO: 12] | 0.007 nM | > 5000 nM |
| GCRFGTCTVQRLAHQIYQFTDKDKDNVAPRTNVSPNGY [SEQ ID NO: 98] | 0.017 nM | 66.9 nM |
| GCRTGTCTVQRLAHQIYQFTDKDKDNVAPRTNVGPQGY [SEQ ID NO: 109] | 0.02 nM | 2980 nM |
| GCRFGTCTVQRLAHQIYQFTDKDKDNVAPRTNVSPQGY [SEQ ID NO: 116] | 0.024 nM | 48.2 nM |
| {C20 diacid-γGlu}-KCNT[Aib]TCTVQRLAHQIYQFTDKDKDNVAPPTNVGSNG[Hyp]-NH2 (disulfide 2-7 (inferred); ends not checked) [SEQ ID NO: 119] | 0.024 nM | > 5000 nM |
| GCRFGTCTVQRLAHFLYQFTDKDKDNVAPRTKVGSNGY [SEQ ID NO: 117] | 0.024 nM | 51.6 nM |
| {C20 diacid-γGlu}-KCNTATCTVQRLAEQIYQFTDKDKDNVAPPTNVGSNT[Hyp]-NH2 (disulfide 2-7 (inferred); not fully specified; ends not checked) [SEQ ID NO: 96] | 0.016 nM | > 5000 nM |
| GCRFGTCTVQRLAHQIYQFTDKDKDNVAPRTKISPNG[Hyp]-NH2 (disulfide 2-7 (inferred); ends not checked) [SEQ ID NO: 113] | 0.022 nM | 2980 nM |
| {C20 diacid-γGlu}-KCNTATCTVQRLAEQIYQFTAKDKDNVAPPTNVGSNG[Hyp]-NH2 (disulfide 2-7 (inferred); ends not checked) [SEQ ID NO: 106] | 0.018 nM | > 5000 nM |
| {C20 diacid-γGlu}-KCNTATCTVDRLAHQIAQFTDKDKDNVAPPTNVGSNG[Hyp]-NH2 (disulfide 2-7 (inferred); ends not checked) [SEQ ID NO: 112] | 0.021 nM | > 5000 nM |
| {C20 diacid-γGlu}-KCNTATCTVQRLAHQINQFTDKDKDNVAPPTNVGSNG[Hyp]-NH2 (disulfide 2-7 (inferred); ends not checked) [SEQ ID NO: 11] | 0.007 nM | > 5000 nM |
| {C20 diacid-γGlu}-KCATATCTVQRLAEQIYQFTDKDKDNVAPPTNVGSNG[Hyp]-NH2 (disulfide 2-7 (inferred); not fully specified; ends not checked) [SEQ ID NO: 97] | 0.016 nM | > 5000 nM |
| {C20 diacid-γGlu}-KCNTATCTVQRLAHQIAQFTNKDKDNVAPPTNVGSNG[Hyp]-NH2 (disulfide 2-7 (inferred); not fully specified; ends not checked) [SEQ ID NO: 95] | 0.016 nM | > 5000 nM |
| {C20 diacid-γGlu}-KCNTATCTVARLAHQIAQFTDKDKDNVAPPTNVGSNG[Hyp]-NH2 (disulfide 2-7 (inferred); ends not checked) [SEQ ID NO: 107] | 0.019 nM | 647 nM |
| GCRTGTCTVQRLAHQIYQFTDKDKDNVAPRTKIGPNG[Hyp]-NH2 (disulfide 2-7 (inferred); ends not checked) [SEQ ID NO: 115] | 0.023 nM | 130 nM |
| {C20 diacid-γGlu}-KCNTATCTVQRLAHQIAQFTDKDKDPVAPPTNVGSNS[Hyp]-NH2 (disulfide 2-7 (inferred); ends not checked) [SEQ ID NO: 120] | 0.025 nM | > 5000 nM |
